The supplement of paper PMC7125110
± gives the standard error. Variants at the floor of the assay were thinned out.

B1: glmS ribozyme (parent)
chain: AUAAAAGCGCCAGAACUACAGAAAUGUAGUUGACGAGGAGGAGGUUUAUCGAAUUUUCGGCGGAUGCCUCCAAA

What was measured:
Conditions in all cases: with glucosamine-6-phosphate
[1] = variants of: B1; assay: self-cleavage kobs at 40 uM GlcN6P; higher = faster cleavage; RNA array
How it was run: (§1)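 Tiles of sequenced MiSeq chips were imaged over ~14 h at 37 °C. On them, barcoded ribozyme variants had been transcribed in situ by E. coli RNA polymerase and were tracked via a hybridised Cy3 probe while glucosamine-6-phosphate (40 μM to 10 mM) in HEPES/KCl/Mg(OAc)2 buffer flowed in. Per-tile medians, normalised to baseline and to non-cleaving reference variants, were fit to one- or two-exponential decays for kobs, and weighted Michaelis–Menten fits gave kcat and KM.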

[2] = variants of: B1; assay: self-cleavage kobs at 10000 uM GlcN6P; higher = faster cleavage; RNA array
How it was run: as §1

[3] = variants of: B1; assay: self-cleavage kobs at 160 uM GlcN6P; higher = faster cleavage; RNA array
How it was run: as §1

[4] = variants of: B1; assay: self-cleavage kobs at 640 uM GlcN6P; higher = faster cleavage; RNA array
How it was run: as §1

[5] = variants of: B1; assay: self-cleavage kobs at 2500 uM GlcN6P; higher = faster cleavage; RNA array
How it was run: as §1

G13C G51C G63C
self-cleavage kobs at 40 uM GlcN6P [1]: < 1e-05 s⁻¹

A15C U31C G51C U56G C70G
self-cleavage kobs at 40 uM GlcN6P [1]: < 1e-05 s⁻¹
self-cleavage kobs at 10000 uM GlcN6P [2]: < 1e-05 s⁻¹

A14C G40U U46C C68U
self-cleavage kobs at 40 uM GlcN6P [1]: < 1e-05 s⁻¹

A14C U57C U69C
self-cleavage kobs at 40 uM GlcN6P [1]: < 1e-05 s⁻¹

A14U A53G
self-cleavage kobs at 40 uM GlcN6P [1]: 0.000202 ± 2.5e-05 s⁻¹
self-cleavage kobs at 160 uM GlcN6P [3]: 0.000311 ± 5.2e-05 s⁻¹
self-cleavage kobs at 640 uM GlcN6P [4]: 0.00204 ± 0.00026 s⁻¹
self-cleavage kobs at 2500 uM GlcN6P [5]: 0.00365 ± 0.00059 s⁻¹
self-cleavage kobs at 10000 uM GlcN6P [2]: 0.00969 ± 0.0011 s⁻¹

A15C G51A
self-cleavage kobs at 40 uM GlcN6P [1]: < 1e-05 s⁻¹
self-cleavage kobs at 160 uM GlcN6P [3]: < 1e-05 s⁻¹
self-cleavage kobs at 10000 uM GlcN6P [2]: < 1e-05 s⁻¹

A15G A48U U57C
self-cleavage kobs at 40 uM GlcN6P [1]: < 1e-05 s⁻¹
self-cleavage kobs at 160 uM GlcN6P [3]: < 1e-05 s⁻¹
self-cleavage kobs at 2500 uM GlcN6P [5]: < 1e-05 s⁻¹
self-cleavage kobs at 10000 uM GlcN6P [2]: < 1e-05 s⁻¹

A14G G59A U65G G66A
self-cleavage kobs at 40 uM GlcN6P [1]: < 1e-05 s⁻¹
self-cleavage kobs at 2500 uM GlcN6P [5]: < 1e-05 s⁻¹

G13C G38A C58U
self-cleavage kobs at 40 uM GlcN6P [1]: < 1e-05 s⁻¹

A15G G63C
self-cleavage kobs at 40 uM GlcN6P [1]: < 1e-05 s⁻¹
self-cleavage kobs at 160 uM GlcN6P [3]: < 1e-05 s⁻¹
self-cleavage kobs at 640 uM GlcN6P [4]: < 1e-05 s⁻¹
self-cleavage kobs at 2500 uM GlcN6P [5]: < 1e-05 s⁻¹
self-cleavage kobs at 10000 uM GlcN6P [2]: < 1e-05 s⁻¹

G13C G40U A53U G59U
self-cleavage kobs at 40 uM GlcN6P [1]: < 1e-05 s⁻¹
self-cleavage kobs at 10000 uM GlcN6P [2]: < 1e-05 s⁻¹

G13A U46C G59A
self-cleavage kobs at 40 uM GlcN6P [1]: < 1e-05 s⁻¹

G13U G41C U46G C50G
self-cleavage kobs at 40 uM GlcN6P [1]: < 1e-05 s⁻¹

A14U A36G C50U C61A
self-cleavage kobs at 40 uM GlcN6P [1]: < 1e-05 s⁻¹

A15C G41A C70U
self-cleavage kobs at 40 uM GlcN6P [1]: 0.000261 ± 6.2e-05 s⁻¹
self-cleavage kobs at 10000 uM GlcN6P [2]: 0.0111 ± 0.0023 s⁻¹

G13C G59C
self-cleavage kobs at 40 uM GlcN6P [1]: < 1e-05 s⁻¹
self-cleavage kobs at 160 uM GlcN6P [3]: < 1e-05 s⁻¹
self-cleavage kobs at 640 uM GlcN6P [4]: < 1e-05 s⁻¹
self-cleavage kobs at 10000 uM GlcN6P [2]: < 1e-05 s⁻¹

G13A G63U
self-cleavage kobs at 40 uM GlcN6P [1]: < 1e-05 s⁻¹
self-cleavage kobs at 160 uM GlcN6P [3]: < 1e-05 s⁻¹
self-cleavage kobs at 640 uM GlcN6P [4]: < 1e-05 s⁻¹
self-cleavage kobs at 2500 uM GlcN6P [5]: < 1e-05 s⁻¹
self-cleavage kobs at 10000 uM GlcN6P [2]: < 1e-05 s⁻¹

A14C A64U
self-cleavage kobs at 40 uM GlcN6P [1]: < 1e-05 s⁻¹
self-cleavage kobs at 160 uM GlcN6P [3]: < 1e-05 s⁻¹
self-cleavage kobs at 640 uM GlcN6P [4]: < 1e-05 s⁻¹

A15G C16G A33G A52G G60A
self-cleavage kobs at 40 uM GlcN6P [1]: < 1e-05 s⁻¹
self-cleavage kobs at 160 uM GlcN6P [3]: < 1e-05 s⁻¹
self-cleavage kobs at 10000 uM GlcN6P [2]: < 1e-05 s⁻¹

G13U U31C A33C A48C A52C U56G
self-cleavage kobs at 40 uM GlcN6P [1]: < 1e-05 s⁻¹

A15C G37A G41C U69G
self-cleavage kobs at 40 uM GlcN6P [1]: < 1e-05 s⁻¹
self-cleavage kobs at 10000 uM GlcN6P [2]: < 1e-05 s⁻¹

A15C C70U
self-cleavage kobs at 40 uM GlcN6P [1]: 0.000192 ± 1.8e-05 s⁻¹
self-cleavage kobs at 160 uM GlcN6P [3]: 0.000389 ± 4.7e-05 s⁻¹
self-cleavage kobs at 640 uM GlcN6P [4]: 0.000719 ± 7.7e-05 s⁻¹
self-cleavage kobs at 2500 uM GlcN6P [5]: 0.00537 ± 0.0012 s⁻¹
self-cleavage kobs at 10000 uM GlcN6P [2]: 0.00871 ± 0.0019 s⁻¹

A14C U55G
self-cleavage kobs at 40 uM GlcN6P [1]: 9.05e-05 ± 2.8e-05 s⁻¹
self-cleavage kobs at 10000 uM GlcN6P [2]: 0.00435 ± 0.0012 s⁻¹

A15G A52G G63U
self-cleavage kobs at 40 uM GlcN6P [1]: < 1e-05 s⁻¹
self-cleavage kobs at 10000 uM GlcN6P [2]: < 1e-05 s⁻¹

G13C G43A G63A A64G
self-cleavage kobs at 40 uM GlcN6P [1]: < 1e-05 s⁻¹
self-cleavage kobs at 10000 uM GlcN6P [2]: < 1e-05 s⁻¹

G13U G35C
self-cleavage kobs at 40 uM GlcN6P [1]: < 1e-05 s⁻¹
self-cleavage kobs at 160 uM GlcN6P [3]: < 1e-05 s⁻¹
self-cleavage kobs at 640 uM GlcN6P [4]: < 1e-05 s⁻¹
self-cleavage kobs at 2500 uM GlcN6P [5]: < 1e-05 s⁻¹
self-cleavage kobs at 10000 uM GlcN6P [2]: < 1e-05 s⁻¹

G13C G29U A48U
self-cleavage kobs at 40 uM GlcN6P [1]: < 1e-05 s⁻¹
self-cleavage kobs at 640 uM GlcN6P [4]: < 1e-05 s⁻¹

A14C A33U A53U U56G
self-cleavage kobs at 40 uM GlcN6P [1]: < 1e-05 s⁻¹
self-cleavage kobs at 10000 uM GlcN6P [2]: 2.92e-05 ± 1.4e-05 s⁻¹

A14G U45G A64U
self-cleavage kobs at 40 uM GlcN6P [1]: < 1e-05 s⁻¹

G13A C50G G66U U69A
self-cleavage kobs at 40 uM GlcN6P [1]: 8.64e-05 ± 2.3e-05 s⁻¹
self-cleavage kobs at 640 uM GlcN6P [4]: 0.000563 ± 0.00026 s⁻¹
self-cleavage kobs at 10000 uM GlcN6P [2]: 0.000117 ± 3e-05 s⁻¹

A12U U54A U69A
self-cleavage kobs at 40 uM GlcN6P [1]: 0.000126 ± 4.4e-05 s⁻¹
self-cleavage kobs at 160 uM GlcN6P [3]: 0.000159 ± 4.6e-05 s⁻¹
self-cleavage kobs at 640 uM GlcN6P [4]: 0.000125 ± 2.7e-05 s⁻¹
self-cleavage kobs at 2500 uM GlcN6P [5]: 0.000458 ± 9.4e-05 s⁻¹
self-cleavage kobs at 10000 uM GlcN6P [2]: 0.000322 ± 6.8e-05 s⁻¹

A14G G51C A53C
self-cleavage kobs at 40 uM GlcN6P [1]: < 1e-05 s⁻¹

A14C A36G
self-cleavage kobs at 40 uM GlcN6P [1]: < 1e-05 s⁻¹
self-cleavage kobs at 160 uM GlcN6P [3]: < 1e-05 s⁻¹
self-cleavage kobs at 640 uM GlcN6P [4]: < 1e-05 s⁻¹
self-cleavage kobs at 2500 uM GlcN6P [5]: < 1e-05 s⁻¹
self-cleavage kobs at 10000 uM GlcN6P [2]: < 1e-05 s⁻¹

A14U A36C
self-cleavage kobs at 40 uM GlcN6P [1]: < 1e-05 s⁻¹
self-cleavage kobs at 640 uM GlcN6P [4]: < 1e-05 s⁻¹
self-cleavage kobs at 10000 uM GlcN6P [2]: < 1e-05 s⁻¹

A14G G40U C50G
self-cleavage kobs at 40 uM GlcN6P [1]: < 1e-05 s⁻¹

A14G C34A G44U C68U
self-cleavage kobs at 40 uM GlcN6P [1]: < 1e-05 s⁻¹
self-cleavage kobs at 160 uM GlcN6P [3]: < 1e-05 s⁻¹

A15G G59C
self-cleavage kobs at 40 uM GlcN6P [1]: < 1e-05 s⁻¹
self-cleavage kobs at 160 uM GlcN6P [3]: < 1e-05 s⁻¹
self-cleavage kobs at 640 uM GlcN6P [4]: < 1e-05 s⁻¹

A15G G35C C68A
self-cleavage kobs at 40 uM GlcN6P [1]: < 1e-05 s⁻¹

G13U A36U C50U C70U
self-cleavage kobs at 40 uM GlcN6P [1]: 7.67e-05 ± 2.7e-05 s⁻¹

G13U C16G U31G C34U
self-cleavage kobs at 40 uM GlcN6P [1]: < 1e-05 s⁻¹

A14U G60U
self-cleavage kobs at 40 uM GlcN6P [1]: < 1e-05 s⁻¹
self-cleavage kobs at 160 uM GlcN6P [3]: < 1e-05 s⁻¹
self-cleavage kobs at 640 uM GlcN6P [4]: < 1e-05 s⁻¹
self-cleavage kobs at 2500 uM GlcN6P [5]: < 1e-05 s⁻¹
self-cleavage kobs at 10000 uM GlcN6P [2]: < 1e-05 s⁻¹

A14U G41U G44U
self-cleavage kobs at 40 uM GlcN6P [1]: < 1e-05 s⁻¹
self-cleavage kobs at 160 uM GlcN6P [3]: < 1e-05 s⁻¹
self-cleavage kobs at 640 uM GlcN6P [4]: < 1e-05 s⁻¹
self-cleavage kobs at 10000 uM GlcN6P [2]: < 1e-05 s⁻¹

A14G C34G
self-cleavage kobs at 40 uM GlcN6P [1]: < 1e-05 s⁻¹
self-cleavage kobs at 160 uM GlcN6P [3]: < 1e-05 s⁻¹
self-cleavage kobs at 10000 uM GlcN6P [2]: < 1e-05 s⁻¹

A14C U31C A39U
self-cleavage kobs at 40 uM GlcN6P [1]: 2.48e-05 ± 1.1e-05 s⁻¹
self-cleavage kobs at 10000 uM GlcN6P [2]: 0.00132 ± 0.00031 s⁻¹

A14G A52G
self-cleavage kobs at 40 uM GlcN6P [1]: 9.65e-05 ± 1.7e-05 s⁻¹
self-cleavage kobs at 160 uM GlcN6P [3]: 0.000152 ± 4e-05 s⁻¹
self-cleavage kobs at 640 uM GlcN6P [4]: 0.00106 ± 0.00018 s⁻¹
self-cleavage kobs at 2500 uM GlcN6P [5]: 0.00234 ± 0.00051 s⁻¹
self-cleavage kobs at 10000 uM GlcN6P [2]: 0.00467 ± 0.001 s⁻¹

G13A A36U A48G C50G C61G
self-cleavage kobs at 40 uM GlcN6P [1]: 0.000674 ± 0.00026 s⁻¹

A14C G60C
self-cleavage kobs at 40 uM GlcN6P [1]: < 1e-05 s⁻¹
self-cleavage kobs at 160 uM GlcN6P [3]: < 1e-05 s⁻¹
self-cleavage kobs at 2500 uM GlcN6P [5]: < 1e-05 s⁻¹
self-cleavage kobs at 10000 uM GlcN6P [2]: < 1e-05 s⁻¹

A14U U69C
self-cleavage kobs at 40 uM GlcN6P [1]: 0.000126 ± 2.3e-05 s⁻¹
self-cleavage kobs at 160 uM GlcN6P [3]: 0.000147 ± 2.2e-05 s⁻¹
self-cleavage kobs at 640 uM GlcN6P [4]: 0.000362 ± 4.8e-05 s⁻¹
self-cleavage kobs at 2500 uM GlcN6P [5]: 0.000501 ± 0.00015 s⁻¹
self-cleavage kobs at 10000 uM GlcN6P [2]: 0.00132 ± 0.00026 s⁻¹
